Data taken from the supplement of paper PMC10724198.
± gives the standard deviation of the averaged measurements.

Experiments:
Saccharomyces cerevisiae [1] = assay: protein stability index of tFT-peptide fusion (C-terminal peptide) (PSI (0-1 scale)); higher = more stable (slower turnover); settings: genetic background: wild type; temperature: 30 C
Saccharomyces cerevisiae [2] = assay: as above
Description: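 MPS profiling in S. cerevisiae of the tFT-X12 degron library: putative degron peptides plus stable controls, 12 aa, fused to the C-terminus of a sfGFP-mCherry timer. Cells are FACS-sorted into 8 mCherry/sfGFP bins and deep-sequenced. PSI runs from 0 (unstable) to 1 (stable). Backgrounds are wild type, das1Δ and doa10Δ at 30 °C, and wild type, das1Δ, cdc34-1 and cdc53-1 at 37 °C; 2-3 technical replicates each.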

[3] = genetic background: cdc34-1, temperature: 37 C
[4] = genetic background: cdc53-1, temperature: 37 C
[5] = genetic background: das1 deletion, temperature: 30 C
[6] = genetic background: das1 deletion, temperature: 37 C
[7] = genetic background: doa10 deletion, temperature: 30 C
[8] = genetic background: wild type, temperature: 30 C
[9] = genetic background: wild type, temperature: 37 C
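Also: PSI is a weighted mean of sequencing reads over stability bins, variants kept only with over 10 reads, mCherry proximal and sfGFP distal, peptide attached via GGGS linker.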

| Sequence | protein stability index (Saccharomyces cerevisiae [1]) | protein stability index (Saccharomyces cerevisiae [2]; [3]) | protein stability index (Saccharomyces cerevisiae [2]; [4]) | protein stability index (Saccharomyces cerevisiae [2]; [5]) | protein stability index (Saccharomyces cerevisiae [2]; [6]) | protein stability index (Saccharomyces cerevisiae [2]; [7]) | protein stability index (Saccharomyces cerevisiae [2]; [8]) | protein stability index (Saccharomyces cerevisiae [2]; [9]) |
| --- | --- | --- | --- | --- | --- | --- | --- | --- |
| LPLLLFYLPIIW | 0.464 ± 0.03 | 0.4647 ± 0.0038 | 0.479 ± 0.0079 | 0.401 ± 0.034 | 0.521 ± 0.0097 | 0.414 ± 0.0077 | 0.389 ± 0.034 | 0.4796 ± 0.0041 |
| LPPFLSSLPSSP | 0.704 ± 0.019 | 0.715 ± 0.027 | 0.769 ± 0.016 | 0.66 ± 0.017 | 0.7635 ± 0.0039 | 0.668 ± 0.031 | 0.663 ± 0.011 | 0.732 ± 0.013 |
| LPPSPPAPLSRL | 0.804 ± 0.066 | 0.906 ± 0.024 | 0.8918 ± 0.0015 | 0.81 ± 0.012 | 0.8616 ± 0.0061 | 0.804 ± 0.022 | 0.801 ± 0.019 | 0.8571 ± 0.005 |
| LQIKSFTSQRLA | 0.158 ± 0.021 | 0.509 ± 0.021 | 0.698 ± 0.0074 | 0.6421 ± 0.0063 | 0.72398 ± 0.0003 | 0.0758 ± 0.016 | 0.0902 ± 0.037 | 0.0965 ± 0.038 |
| LRFMLLSFLVIL | 0.234 ± 0.083 | 0.251 ± 0.021 | 0.207 ± 0.015 | 0.349 ± 0.034 | 0.429 ± 0.019 | 0.2402 ± 0.0023 | 0.176 ± 0.022 | 0.266 ± 0.01 |
| LRFVCALGYCVW | 0.471 ± 0.0098 | 0.577 ± 0.042 | 0.645 ± 0.019 | 0.485 ± 0.027 | 0.6011 ± 0.0042 | 0.443 ± 0.015 | 0.461 ± 0.029 | 0.574 ± 0.0089 |
| LRNVPCLVFFWV | 0.462 ± 0.048 | 0.5656 ± 0.0038 | 0.61 ± 0.025 | 0.439 ± 0.024 | 0.632 ± 0.011 | 0.334 ± 0.017 | 0.384 ± 0.03 | 0.631 ± 0.049 |
| LRSVLGWGLFLA | 0.325 ± 0.018 | 0.45 ± 0.033 | 0.494 ± 0.014 | 0.493 ± 0.027 | 0.621 ± 0.0097 | 0.236 ± 0.0088 | 0.208 ± 0.021 | 0.422 ± 0.0078 |
| LSCFCLFCLSFC | 0.0626 ± 0.033 | 0.634 ± 0.053 | 0.678 ± 0.026 | 0.518 ± 0.036 | 0.663 ± 0.027 | 0.517 ± 0.039 | 0.496 ± 0.015 | 0.669 ± 0.0017 |
| LSFLALLLFFRI | 0.4764 ± 0.0023 | 0.228 ± 0.035 | 0.22 ± 0.061 | 0.363 ± 0.04 | 0.44 ± 0.015 | 0.567 ± 0.017 | 0.372 ± 0.025 | 0.357 ± 0.019 |
| LSGIILGWSVSG | 0.676 ± 0.034 | 0.755 ± 0.047 | 0.76 ± 0.0077 | 0.6302 ± 0.0058 | 0.735 ± 0.047 | 0.6308 ± 0.005 | 0.645 ± 0.0062 | 0.7292 ± 0.003 |
| LSLVYFAALFSF | 0.4709 ± 0.0037 | 0.484 ± 0.042 | 0.529 ± 0.033 | 0.409 ± 0.019 | 0.53775 ± 0.00036 | 0.356 ± 0.025 | 0.377 ± 0.043 | 0.4858 ± 0.003 |
| LSTPPLLPTPPS | 0.7113 ± 0.0049 | 0.672 ± 0.029 | 0.7296 ± 0.0032 | 0.664 ± 0.012 | 0.7182 ± 0.0062 | 0.672 ± 0.029 | 0.669 ± 0.014 | 0.6988 ± 0.0048 |
| LSVMKLFVMVGP | 0.401 ± 0.039 | 0.442 ± 0.0094 | 0.493 ± 0.027 | 0.37 ± 0.026 | 0.5023 ± 0.0045 | 0.358 ± 0.0093 | 0.377 ± 0.029 | 0.479 ± 0.012 |
| LSVSLFPIRYVG | 0.396 ± 0.025 | 0.666 ± 0.027 | 0.76446 ± 1.3e-05 | 0.617 ± 0.019 | 0.7638 ± 0.0037 | 0.196 ± 0.0098 | 0.24 ± 0.02 | 0.453 ± 0.016 |
| LVVIYPLLSSPV | 0.4643 ± 0.00088 | 0.564 ± 0.0066 | 0.567 ± 0.019 | 0.43 ± 0.027 | 0.578 ± 0.0074 | 0.402 ± 0.014 | 0.43 ± 0.022 | 0.562 ± 0.0072 |
| LWFFVGFAVYGG | 0.455 ± 0.0066 | 0.302 ± 0.0084 | 0.438 ± 0.018 | 0.346 ± 0.036 | 0.513 ± 0.019 | 0.306 ± 0.012 | 0.371 ± 0.0059 | 0.497 ± 0.058 |
| LWFRGGYLFFVV | 0.265 ± 0.043 | 0.44378 ± 0.00022 | 0.444 ± 0.013 | 0.439 ± 0.025 | 0.499 ± 0.01 | 0.2 ± 0.013 | 0.185 ± 0.016 | 0.332 ± 0.0057 |
| LWVTRVYCLLVC | 0.0818 ± 0.0069 | 0.0444 ± 0.016 | 0.158 ± 0.03 | 0.168 ± 0.019 | 0.233 ± 0.019 | 0.0555 ± 0.02 | 0.0507 ± 0.015 | 0.0739 ± 0.015 |
| LYIQWVSRWSVQ | 0.504 ± 0.025 | 0.611 ± 0.029 | 0.664 ± 0.083 | 0.547 ± 0.035 | 0.669 ± 0.021 | 0.388 ± 0.011 | 0.415 ± 0.019 | 0.5818 ± 0.003 |

| Sequence | protein stability index (Saccharomyces cerevisiae [1]) | protein stability index (Saccharomyces cerevisiae [2]; [3]) | protein stability index (Saccharomyces cerevisiae [2]; [4]) | protein stability index (Saccharomyces cerevisiae [2]; [5]) | protein stability index (Saccharomyces cerevisiae [2]; [6]) | protein stability index (Saccharomyces cerevisiae [2]; [7]) | protein stability index (Saccharomyces cerevisiae [2]; [8]) | protein stability index (Saccharomyces cerevisiae [2]; [9]) |
| --- | --- | --- | --- | --- | --- | --- | --- | --- |
| LYLCLVSPVVVL | 0.296 ± 0.029 | 0.156 ± 0.011 | 0.172 ± 0.0061 | 0.226 ± 0.024 | 0.296 ± 0.0064 | 0.184 ± 0.011 | 0.204 ± 0.032 | 0.2571 ± 0.0014 |
| LYLGCVLFVLFR | 0.234 ± 0.054 | 0.197 ± 0.045 | 0.151 ± 0.024 | 0.216 ± 0.029 | 0.368 ± 0.0098 | 0.273 ± 0.0047 | 0.198 ± 0.024 | 0.312 ± 0.036 |
| LYSVLWFCFPLV | 0.466 ± 0.028 | 0.586 ± 0.039 | 0.5638 ± 0.0037 | 0.446 ± 0.025 | 0.577 ± 0.0076 | 0.442 ± 0.035 | 0.42 ± 0.024 | 0.55 ± 0.01 |
| LYVLNILSFVCV | 0.1688 ± 0.00051 | 0.1572 ± 0.0013 | 0.25 ± 0.0041 | 0.137 ± 0.013 | 0.251 ± 0.023 | 0.115 ± 0.0099 | 0.117 ± 0.017 | 0.207 ± 0.0027 |
| MALAVRVVKCGA | 0.384 ± 0.028 | 0.328 ± 0.016 | 0.376 ± 0.0062 | 0.275 ± 0.031 | 0.4361 ± 0.0027 | 0.221 ± 0.006 | 0.268 ± 0.034 | 0.397 ± 0.0054 |
| MCRMYELYVTSS | 0.467 ± 0.01 | 0.504 ± 0.046 | 0.568 ± 0.079 | 0.382 ± 0.034 | 0.588 ± 0.026 | 0.349 ± 0.025 | 0.374 ± 0.018 | 0.558 ± 0.016 |
| MIILGFILYFFW | 0.422 ± 0.033 | 0.4 ± 0.011 | 0.533 ± 0.03 | 0.332 ± 0.035 | 0.505 ± 0.018 | 0.352 ± 0.04 | 0.347 ± 0.034 | 0.444 ± 0.018 |
| NAPSAIQKNKKC | 0.433 ± 0.081 | 0.696 ± 0.016 | 0.6886 ± 0.0037 | 0.649 ± 0.036 | 0.71782 ± 0.00039 | 0.211 ± 0.016 | 0.281 ± 0.037 | 0.515 ± 0.08 |
| NDSSWEVSLMVG | 0.363 ± 0.076 | 0.693 ± 0.019 | 0.763 ± 0.021 | 0.616 ± 0.024 | 0.748 ± 0.0098 | 0.614 ± 0.041 | 0.62 ± 0.018 | 0.736 ± 0.028 |
| NECLSSKWLRIC | 0.185 ± 0.0041 | 0.399 ± 0.013 | 0.661 ± 0.032 | 0.631 ± 0.029 | 0.726 ± 0.025 | 0.0791 ± 0.032 | 0.111 ± 0.039 | 0.147 ± 0.035 |
| NFKELMEKSKYR | 0.719 ± 0.018 | 0.704 ± 0.02 | 0.752 ± 0.029 | 0.677 ± 0.019 | 0.763 ± 0.028 | 0.677 ± 0.061 | 0.665 ± 0.027 | 0.718 ± 0.012 |
| NLTAIIYTLVVD | 0.31 ± 0.015 | 0.2313 ± 0.0018 | 0.466 ± 0.23 | 0.218 ± 0.032 | 0.444 ± 0.018 | 0.197 ± 0.016 | 0.225 ± 0.028 | 0.3944 ± 0.00021 |
| NQIIRLIVGLLC | 0.291 ± 0.016 | 0.55 ± 0.039 | 0.601 ± 0.017 | 0.486 ± 0.017 | 0.5867 ± 0.0055 | 0.193 ± 0.014 | 0.224 ± 0.011 | 0.355 ± 0.02 |
| PCLLRYLVHPFP | 0.75445 ± 0.00044 | 0.687 ± 0.026 | 0.765 ± 0.021 | 0.648 ± 0.014 | 0.7439 ± 0.0017 | 0.65 ± 0.013 | 0.667 ± 0.0086 | 0.7159 ± 0.0025 |
| PCPAPRPPSPSA | 0.435 ± 0.03 | 0.664 ± 0.078 | 0.721 ± 0.05 | 0.653 ± 0.0096 | 0.715 ± 0.0076 | 0.668 ± 0.031 | 0.682 ± 0.023 | 0.694 ± 0.014 |
| PDCRPPLVRCLL | 0.796 ± 0.03 | 0.9585 ± 0.0082 | 0.902 ± 0.071 | 0.827 ± 0.028 | 0.9164 ± 0.0047 | 0.8334 ± 0.0043 | 0.822 ± 0.035 | 0.936 ± 0.019 |
| PFALTPPPSPRS | 0.426 ± 0.043 | 0.745 ± 0.011 |  | 0.384 ± 0.024 | 0.583 ± 0.0083 | 0.356 ± 0.024 | 0.366 ± 0.0092 | 0.52 ± 0.046 |
| PFFCFLLFCFSL | 0.455 ± 0.037 | 0.477 ± 0.032 | 0.498 ± 0.0033 | 0.439 ± 0.033 | 0.5465 ± 0.00098 | 0.459 ± 0.0093 | 0.419 ± 0.027 | 0.5292 ± 0.0024 |
| PFFLLAGITVAC | 0.273 ± 0.016 | 0.0507 ± 0.023 | 0.0625 ± 0.026 | 0.177 ± 0.031 | 0.203 ± 0.0027 | 0.139 ± 0.0038 | 0.15 ± 0.025 | 0.16 ± 0.0058 |
